Literature values, collected in EP1666054A1, “Method for administering insulinotropic peptides” (priority 1998, dated 2006).

Conditions: pulmonary delivery; calculated, background statement

parathyroid hormone (1-34)
Absorption values (delivered through the lungs): fifteen
